From paper PMC8260879

Legend:
[1] = molecular target: EphA4 WT fused to C-terminal mTURQ or EYFP (human) (UniProt P54764); assay: fluorescence intensity fluctuation (FIF) analysis; molecular brightness in transfected HEK293 cells in the presence of ephrinA5-Fc
[2] = molecular target: EphA4 WT fused to C-terminal mTURQ or EYFP (human) (UniProt P54764); assay: FRET or BRET; FSI-FRET as without ligand but with 0.5 μg/ml ephrinA5-Fc in the hypo-osmotic medium; monomer-dimer equilibrium: dimer to monomers
[3] = molecular target: EphA4 WT fused to C-terminal mTURQ or EYFP (human) (UniProt P54764); assay: fluorescence intensity fluctuation (FIF) analysis; molecular brightness, no ligand, only the data at receptor concentrations above 3000 receptors/μm^2
[4] = molecular target: EphA4 WT fused to C-terminal mTURQ or EYFP (human) (UniProt P54764); assay: fluorescence intensity fluctuation (FIF) analysis; molecular brightness in regions of the basolateral membrane of transfected HEK293 cells, no ligand, data over the whole range of receptor concentrations
[5] = molecular target: EphA4 WT fused to C-terminal mTURQ or EYFP (human) (UniProt P54764); assay: FRET or BRET; FSI-FRET of mTURQ- and EYFP-tagged receptor in the plasma membrane of live HEK293T cells, no ligand, hypo-osmotic medium; fit of a monomer-dimer equilibrium (Equation 2): dimer to monomers; constants in two-dimensional concentration

molecular brightness at the maximum of the distribution [1]: < 2
stoichiometry N [2]: 2
stoichiometry N [3]: 2
molecular brightness at the peak of the distribution [4]: < 2
oligomeric fraction above 3000 receptors/μm^2 [5]: > 65%
stoichiometry N [5]: 2
Substance: EphA4 WT fused to C-terminal mTURQ or EYFP (from UniProt P54764-1 20-986) (receptor)
